# Legend:
# [1] = tested on: 30 different normal tissues; test: Immunohistochemistry on tissue microarrays of normal tissues
# Method: (§1) Tissue and tumor specificity of mAbs: to compare the tissue and tumor specificity of monoclonal antibodies of the present invention, tissue microarrays of 30 different normal tissues (Biochain) and 22 different tumor types (Dako) including prostate cancer was used in order to characterize their recognition specificity. The immunohistochemistry was performed on antigen retrieved, formalin fixed, paraffin embedded material. Anti-PSMA mAbs J591 (ATCC HB-12126) and 7E11 (ATCC HB-10494) were used as references. Formalin fixed paraffin embedded […] sections were subjected to antigen retrieval in basic antigen retrieval solution (BD Pharmingen pH 9.5) in a microwavable pressure cooker for 10 min, cooled and equilibrated to 0.01M phosphate buffered saline (PBS) pH 7.4. Staining was carried out at room temperature in a humidified chamber. Endogenous peroxidases were inactivated with a 1% solution of H2O2 for 20 min, blocked with 5% normal goat serum (NGS) for 30 min and incubated with primary monoclonal antibodies (mAbs) diluted in PBS; 2% NGS overnight. Antibody binding to tissue sections was detected by the sequential addition of the following reagents followed by washing in PBS: goat anti-mouse IgG (H+L) (ICN) secondary antibody diluted 1:100 in PBS; 2% NGS for 1 hr, a complex of a bi-specific mAb mouse anti-peroxidase and horse radish peroxidase for 1 hr, and 3,3-diaminobenzidene tetrahydrochloride (DAB) at 0.6 mg/ml in PBS; 2% NGS; 0.01% H2O2 as chromogen. The primary antibodies were purified mAbs used at concentrations optimized in dilution experiments. […] Mouse IgG mAb was used at a concentration of 0.2 μg/ml and served as a negative control for the primary antibodies. Tissue samples included organ confined and metastatic prostate cancer, HGPIN and normal prostate tissues drawn from radical prostatectomies, transurethral resections and autopsy material.
# 22 different tumor types = test: Immunohistochemistry on tissue microarrays of tumor types
# Method: as §1
molecule,measurement,setting,value
"PSf42.3: anti-PSMA monoclonal antibody; light chain variable SEQ ID NO:49, heavy chain variable SEQ ID NO:50 (antibody, V domains shown) VH: EVQLQQSGAELAKPGASVKLSCTGSGFNIKDTYMHWVKQRPEQGLEWIGGIDPETGNTKFDPRFQDKATITSDTSSNTVLLQLSSLTSEDTAVYYCANLGRPFAHWGQGTTVTVS VL: HSADPVSISCKSSQSLLHRDGKTYLNWVFQRPGQSPQRLIYLVSLVDSGVPDRFTGSGSGTDFTLKINRVEAEDLGVYYCWQGTHFPRTFGGGTKLEIKRA",No. of positive cases/total no. of cases studied,[1]; Adipose,0/2
same,No. of positive cases/total no. of cases studied,[1]; Bladder,0/2
same,No. of positive cases/total no. of cases studied,[1]; Brain,0/2
same,No. of positive cases/total no. of cases studied,[1]; Breast,0/2
same,No. of positive cases/total no. of cases studied,[1]; Cerebullum,0/2
same,No. of positive cases/total no. of cases studied,[1]; Cervix,0/2
same,No. of positive cases/total no. of cases studied,[1]; Colon,0/2
same,No. of positive cases/total no. of cases studied,[1]; Diaphragm,2/2
same,No. of positive cases/total no. of cases studied,[1]; Duodenum,2/2
same,No. of positive cases/total no. of cases studied,[1]; Esophagus,2/2
same,No. of positive cases/total no. of cases studied,[1]; Gallbladder,0/2
same,No. of positive cases/total no. of cases studied,[1]; Heart,0/2
same,No. of positive cases/total no. of cases studied,[1]; Ileum,2/2
same,No. of positive cases/total no. of cases studied,[1]; Jejenum,2/2
same,No. of positive cases/total no. of cases studied,[1]; Kidney,2/2
same,No. of positive cases/total no. of cases studied,[1]; Liver,0/2
same,No. of positive cases/total no. of cases studied,[1]; Lung,0/2
same,No. of positive cases/total no. of cases studied,[1]; Ovary,0/2
same,No. of positive cases/total no. of cases studied,[1]; Pancreas,0/2
same,No. of positive cases/total no. of cases studied,[1]; Placenta,1/4
same,No. of positive cases/total no. of cases studied,[1]; Rectum,0/2
same,No. of positive cases/total no. of cases studied,[1]; Skeletal muscle,2/2
same,No. of positive cases/total no. of cases studied,[1]; Skin,0/2
same,No. of positive cases/total no. of cases studied,[1]; Spleen,0/2
same,No. of positive cases/total no. of cases studied,[1]; Stomach,0/2
same,No. of positive cases/total no. of cases studied,[1]; Testis,0/2
same,No. of positive cases/total no. of cases studied,[1]; Thymus,0/2
same,No. of positive cases/total no. of cases studied,[1]; Thyroid,0/2
same,No. of positive cases/total no. of cases studied,[1]; Tonsil,0/2
same,No. of positive cases/total no. of cases studied,[1]; Uterus,0/2
same,No. of positive cases/total no. of cases studied,22 different tumor types; Astrocytoma,0/2
same,No. of positive cases/total no. of cases studied,22 different tumor types; Breast carcinoma,0/2
same,No. of positive cases/total no. of cases studied,22 different tumor types; Carcinoid,0/3
same,No. of positive cases/total no. of cases studied,22 different tumor types; Colonic adenocarcinoma,0/2
same,No. of positive cases/total no. of cases studied,22 different tumor types; Epithelioid sarcoma,0/1
same,No. of positive cases/total no. of cases studied,22 different tumor types; Ewing's sarcoma,0/1
same,No. of positive cases/total no. of cases studied,22 different tumor types; Gastric carcinoma,0/2
same,No. of positive cases/total no. of cases studied,22 different tumor types; Hepatocellular carcinoma,0/2
same,No. of positive cases/total no. of cases studied,22 different tumor types; Hodgkin's lymphoma,2/13
same,No. of positive cases/total no. of cases studied,22 different tumor types; Leiomyoma,0/2
same,No. of positive cases/total no. of cases studied,22 different tumor types; Lung adeno carcinoma,0/2
same,No. of positive cases/total no. of cases studied,22 different tumor types; Lymphoma,0/3
same,No. of positive cases/total no. of cases studied,22 different tumor types; Malignant fibrous histiocytoma,0/1
same,No. of positive cases/total no. of cases studied,22 different tumor types; Melanoma,2/4
same,No. of positive cases/total no. of cases studied,22 different tumor types; Mesothelioma,0/2
same,No. of positive cases/total no. of cases studied,22 different tumor types; Ovarian carcinoma,0/2
same,No. of positive cases/total no. of cases studied,22 different tumor types; Pancreatic carcinoma,0/2
same,No. of positive cases/total no. of cases studied,22 different tumor types; Prostatic carcinoma,1/1
same,No. of positive cases/total no. of cases studied,22 different tumor types; Renal cell carcinoma,0/2
same,No. of positive cases/total no. of cases studied,22 different tumor types; Rhabdosarcoma,2/2
same,No. of positive cases/total no. of cases studied,22 different tumor types; Thyroid carcinoma,0/2
same,No. of positive cases/total no. of cases studied,22 different tumor types; Undifferentiated carcinoma,0/4
"PSf42.4: anti-PSMA monoclonal antibody; light chain variable SEQ ID NO:51, heavy chain variable SEQ ID NO:52 (antibody, V domains shown) VH: EVKLQQSGAELVKPGASVKLSCTASGFSIRDTYMHWVRQRPEQGLEWITGIDPENGNSKYAPRFQDKATIIADTSSNTVHLQLDTLTSEDTAVYYCTRELAYWGQGTTVTVS VL: DILMTQSPLTLSVIIGQPASFSCKSSHSLLHRDGRTYLNWLLQRPGQSPQRLIYLVSKLDSGVPDRFTGSGSGTDFTLKISRVEAEDLGVYYCWQGTHFPRTFGGGTKLEIKRA",No. of positive cases/total no. of cases studied,[1]; Adipose,0/2
same,No. of positive cases/total no. of cases studied,[1]; Bladder,0/2
same,No. of positive cases/total no. of cases studied,[1]; Brain,0/2
same,No. of positive cases/total no. of cases studied,[1]; Breast,0/2
same,No. of positive cases/total no. of cases studied,[1]; Cerebullum,0/2
same,No. of positive cases/total no. of cases studied,[1]; Cervix,0/2
same,No. of positive cases/total no. of cases studied,[1]; Colon,0/2
same,No. of positive cases/total no. of cases studied,[1]; Diaphragm,2/2
same,No. of positive cases/total no. of cases studied,[1]; Duodenum,0/2
same,No. of positive cases/total no. of cases studied,[1]; Esophagus,0/2
same,No. of positive cases/total no. of cases studied,[1]; Gallbladder,0/2
same,No. of positive cases/total no. of cases studied,[1]; Heart,0/2
same,No. of positive cases/total no. of cases studied,[1]; Ileum,2/2
same,No. of positive cases/total no. of cases studied,[1]; Jejenum,2/2
same,No. of positive cases/total no. of cases studied,[1]; Kidney,1/2
same,No. of positive cases/total no. of cases studied,[1]; Liver,0/2
same,No. of positive cases/total no. of cases studied,[1]; Lung,0/2
same,No. of positive cases/total no. of cases studied,[1]; Ovary,0/2
same,No. of positive cases/total no. of cases studied,[1]; Pancreas,0/2
same,No. of positive cases/total no. of cases studied,[1]; Placenta,1/4
same,No. of positive cases/total no. of cases studied,[1]; Rectum,0/2
same,No. of positive cases/total no. of cases studied,[1]; Skeletal muscle,2/2
same,No. of positive cases/total no. of cases studied,[1]; Skin,0/2
same,No. of positive cases/total no. of cases studied,[1]; Spleen,0/2
same,No. of positive cases/total no. of cases studied,[1]; Stomach,0/2
same,No. of positive cases/total no. of cases studied,[1]; Testis,0/2
same,No. of positive cases/total no. of cases studied,[1]; Thymus,0/2
same,No. of positive cases/total no. of cases studied,[1]; Thyroid,0/2
same,No. of positive cases/total no. of cases studied,[1]; Tonsil,0/2
same,No. of positive cases/total no. of cases studied,[1]; Uterus,0/2
same,No. of positive cases/total no. of cases studied,22 different tumor types; Astrocytoma,0/2
same,No. of positive cases/total no. of cases studied,22 different tumor types; Breast carcinoma,0/2
same,No. of positive cases/total no. of cases studied,22 different tumor types; Carcinoid,0/3
same,No. of positive cases/total no. of cases studied,22 different tumor types; Colonic adenocarcinoma,0/2
same,No. of positive cases/total no. of cases studied,22 different tumor types; Epithelioid sarcoma,0/1
same,No. of positive cases/total no. of cases studied,22 different tumor types; Ewing's sarcoma,0/1
same,No. of positive cases/total no. of cases studied,22 different tumor types; Gastric carcinoma,0/2
same,No. of positive cases/total no. of cases studied,22 different tumor types; Hepatocellular carcinoma,0/2
same,No. of positive cases/total no. of cases studied,22 different tumor types; Hodgkin's lymphoma,5/13
same,No. of positive cases/total no. of cases studied,22 different tumor types; Leiomyoma,0/2
same,No. of positive cases/total no. of cases studied,22 different tumor types; Lung adeno carcinoma,0/2
same,No. of positive cases/total no. of cases studied,22 different tumor types; Lymphoma,0/3
same,No. of positive cases/total no. of cases studied,22 different tumor types; Malignant fibrous histiocytoma,0/1
same,No. of positive cases/total no. of cases studied,22 different tumor types; Melanoma,2/4
same,No. of positive cases/total no. of cases studied,22 different tumor types; Mesothelioma,0/2
same,No. of positive cases/total no. of cases studied,22 different tumor types; Ovarian carcinoma,0/2
same,No. of positive cases/total no. of cases studied,22 different tumor types; Pancreatic carcinoma,0/2
same,No. of positive cases/total no. of cases studied,22 different tumor types; Prostatic carcinoma,1/1
same,No. of positive cases/total no. of cases studied,22 different tumor types; Renal cell carcinoma,0/2
same,No. of positive cases/total no. of cases studied,22 different tumor types; Rhabdosarcoma,2/2
same,No. of positive cases/total no. of cases studied,22 different tumor types; Thyroid carcinoma,0/2
same,No. of positive cases/total no. of cases studied,22 different tumor types; Undifferentiated carcinoma,0/4
